Paper PMC12717012, “Hierarchical interactions between nucleolar and heterochromatin condensates are mediated by a dual-affinity protein” (Nature Cell Biology, 2025)

Biological target: T1, His-tagged recombinant Pit, wild type (Pit^WT) (Drosophila melanogaster, UniProt Q9VD51 1-680)
T1 construct: also called His-tagged Pit; pBH4-Pit; source: E. coli BL21, purified (Ni-NTA, size-exclusion chromatography on Superdex 200); not shown: 6×His, N-terminal, kept
Assay: pull-down; His-tagged Pit (5 µM) as bait with purified HP1a as prey (5 µM; titrated from 50 to 5 µM); 20 mM sodium phosphate, 50 mM NaCl, 10 mM imidazole, 4 °C; captured on Ni-NTA magnetic beads; western blot; background control beads + HP1a only
Conditions: both partners purified

T1 sequence (Q9VD51 whole entry): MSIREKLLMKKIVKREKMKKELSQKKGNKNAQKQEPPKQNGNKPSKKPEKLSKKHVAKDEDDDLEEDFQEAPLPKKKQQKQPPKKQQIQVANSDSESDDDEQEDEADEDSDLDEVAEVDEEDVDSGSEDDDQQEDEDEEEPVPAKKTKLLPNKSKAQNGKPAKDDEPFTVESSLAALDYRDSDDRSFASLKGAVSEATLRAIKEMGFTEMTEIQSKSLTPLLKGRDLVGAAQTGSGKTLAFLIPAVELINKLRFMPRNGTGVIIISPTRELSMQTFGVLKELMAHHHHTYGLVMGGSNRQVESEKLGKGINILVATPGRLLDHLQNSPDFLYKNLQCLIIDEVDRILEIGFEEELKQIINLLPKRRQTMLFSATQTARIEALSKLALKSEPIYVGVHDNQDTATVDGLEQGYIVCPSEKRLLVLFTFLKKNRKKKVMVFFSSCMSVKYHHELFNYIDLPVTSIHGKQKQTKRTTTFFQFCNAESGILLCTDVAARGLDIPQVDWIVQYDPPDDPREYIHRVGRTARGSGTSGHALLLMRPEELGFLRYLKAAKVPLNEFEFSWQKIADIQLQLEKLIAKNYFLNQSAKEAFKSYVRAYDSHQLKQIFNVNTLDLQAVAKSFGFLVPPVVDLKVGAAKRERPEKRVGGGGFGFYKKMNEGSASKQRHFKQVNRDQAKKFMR

- binding result: binds
B1: purified HP1a, wild type (HP1a^WT) (natural protein, Drosophila melanogaster, UniProt P05205 1-206, looked up)
chain: MGKKIDNPESSAKVSDAEEEEEEYAVEKIIDRRVRKGKVEYYLKWKGYPETENTWEPENNLDCQDLIQQYEASRKDEEKSAASKKDRPSSSAKAKETQGRASSSTSTASKRKSEEPTAPSGNKSKRTTDAEQDTIPVSGSTGFDRGLEAEKILGASDNNGRLTFLIQFKGVDQAEMVPSSVANEKIPRMVIHFYEERLSWYSDNED
notes: HP1a, Drosophila melanogaster; It speaks of HP1a dimers, but no dimerisation experiment is done here
